Source: PMC4569319 (Molecular Biology of the Cell, 2015)

Molecular target: Murine ΔIBB-importin α1 (mouse, UniProt P52293 70-529)
Assay: crystal structure

Does LKEKKKRTVAEEDQLHLDGQENKRRRHDSS [Pom121NLS(291-320), GST cleaved off] bind?
Result: binds
